The values that follow come from US20260125460A1 (Eli Lilly, published 2026).

One may read the IC50 as the concentration at which inhibition is half-maximal. In general, Kd refers to the equilibrium constant for the complex coming apart. A word on the koff: it is the rate constant with which the complex falls apart. In general, kon refers to a measure of how fast the partners come together.

Assay [1] concerns the target T1, human IL-34 (human, UniProt Q6ZMJ4 21-242).
T1 sequence: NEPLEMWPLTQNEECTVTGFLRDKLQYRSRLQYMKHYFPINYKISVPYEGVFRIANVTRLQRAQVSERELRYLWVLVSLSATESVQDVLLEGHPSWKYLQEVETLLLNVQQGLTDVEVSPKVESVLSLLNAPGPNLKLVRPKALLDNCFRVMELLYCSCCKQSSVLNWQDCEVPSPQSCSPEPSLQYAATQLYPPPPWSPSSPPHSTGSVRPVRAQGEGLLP
As to the kind of experiment: cell-based or functional assay.

Assay [2] has as its target T1, human IL-34. As to the kind of experiment: competition ELISA; displacement of biotinylated human IL-34 (3.7 nM) from plate-bound hCSF1R_Fc. As to the method:
(§1) CSF1R extracellular domain proteins (hCSF1R_Fc commercially available from R&D Cat #329-MR, cynomolgus CSF1R ECD-Fc (AAA is a linker between CSF1R extracellular domain and Fc) (SEQ ID NO: 34)) can be bound to an ELISA plate at concentrations of 30 nM in order to capture soluble biotinylated IL-34 and allowed to bind for one hour. After washing and blocking plate, biotinylated IL-34 may be added, then detected via streptavidin conjugated peroxidase. Concentrations of labeled IL-34 near the 80% binding level (EC₈₀) (3.7 nM) may be used in conjunction with a range of antibody concentrations (0-100 nM) to determine concentration of antibody required to displace IL-34 from CSF1R. After 1 hr incubation, IL-34 bound to CSF1R is detected via streptavidin conjugated peroxidase. The antibodies are assayed (n=2) and the average and standard deviation at each concentration are calculated. The potency of an antibody to displace IL-34 from CSF1R is reported as IC₅₀ (nM) with the calculated confidence interval (CI) in Table 4 and Table 5.

In assay [3] the target is T2, cynomolgus monkey IL-34 (cynomolgus monkey, UniProt G7Q1L3 21-242).
T2 construct: Biotinylated in the displacement ELISA; also called cyno IL-34
T2 sequence: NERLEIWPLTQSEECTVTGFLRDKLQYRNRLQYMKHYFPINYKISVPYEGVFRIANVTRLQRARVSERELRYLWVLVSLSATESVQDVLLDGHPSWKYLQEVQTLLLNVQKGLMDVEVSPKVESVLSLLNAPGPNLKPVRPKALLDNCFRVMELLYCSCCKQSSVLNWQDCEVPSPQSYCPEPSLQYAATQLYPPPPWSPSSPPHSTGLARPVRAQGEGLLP
As to the kind of experiment: competition ELISA; displacement of biotinylated cyno IL-34 from plate-bound cynomolgus CSF1R ECD-Fc. As to the method:
as §1

Assay [4] deals with T1, human IL-34. In words: SPR, BIAcore 8K, 37 C; antibody captured on Protein A chip, IL-34 in flow; 1:1 fit; average of at least three experiments. Here is the method:
(§2) Binding affinity of anti-IL-34 monoclonal antibodies of the present disclosure to human and/or cynomolgus monkey (cyno) IL-34 may be determined by methods known in the art. […] For each cycle, 200 μL IL-34 is flowed over the immobilized antibody at 100 μL/minute, and then dissociated for 20 minutes. The chip surface is regenerated with 50 μL of glycine buffer at pH 1.5 at a flow rate of 100 μL/minute. The data are fit to a 1:1 Langmiur binding mode to derive kon, koff and to calculate KD.

The target in assay [5] is T2, cynomolgus monkey IL-34. Described as above. As to the method: as §2

B1: Antibody 1 (antibody, human IgG4 S228P, kappa, F234A L235A, V domains shown)
VH: EVQLLESGGGLVQPGGSLRLSCAASGFAFSNYAMSWVRQAPGKGLEWVSAISASGGKTYYADSVKGRFTISRDNSKNTLYLQMNSLRAEDTAVYYCAKRGYLWHAFDHWGRGTLVTVSS
VL: EIVLTQSPGTLSLSPGERATLSCRASQSVYSSYLAWYQQKPGQAPRLLIYGASSRATGIPDRFSGSGSGTDFTLTISRLEPEDFAVYYCQVVGSSPPFTFGGGTKVEIKR
notes: Human anti-human IL-34 antibody; IgG4 PAA hinge/Fc without the C-terminal lysine; also called Exemplified Antibody 1; exemplified antibody 1
As for B1, the “IC50 (ug/ml), neutralization of human IL-34 (100 ng/ml) induced luciferase reporter activity in hCSF1R expressing 293 SRE cells” value with human IL-34 [1] was found to be 0.0533 µg/mL. Besides, the IC50 with human IL-34 [2] was 0.0657 nM. The molecule also registered an IC50 with cynomolgus monkey IL-34 [3] of 1.41 nM. In addition, in the assay with human IL-34 [4], the affinity, expressed as Kd, was 0.0338 nM; the koff came out at 0.00019 s⁻¹; the kon turned out to be 5.6e+06 M⁻¹ s⁻¹. In the assay with cynomolgus monkey IL-34 [5], binding was put at a Kd of 0.039 nM, the koff was 0.00031 s⁻¹ and the kon was 8.1e+06 M⁻¹ s⁻¹.
